# Assay results taken from publication doi:10.1101/2020.02.12.945170 (2020).
# Square brackets hold non-standard residues; d marks the D form. Ends that are not written are not given here. * marks the point of attachment. Biotin = O=C1N[C@H]2[C@H](CS[C@H]2CCCCC(=O)*)N1; pY = N[C@@H](Cc1ccc(OP(=O)(O)O)cc1)C(=O)O
# B1: ZAP70 tSH2-GFP (tandem SH2 domains of human ZAP70, amino acids 1-264, with C-terminal GFP) (domain or fragment)
# chain: MPDPAAHLPFFYGSISRAEAEEHLKLAGMADGLFLLRQCLRSLGGYVLSLVHDVRFHHFPIERQLNGTYAIAGGKAHCGPAELCEFYSRDPDGLPCNLRKPCNRPSGLEPQPGVFDCLRDAMVRDYVRQTWKLEGEALEQAIISQAPQVEKLIATTAHERMPWYHSSLTREEAERKLYSGAQTDGKFLLRPRKEQGTYALSLIYGKTVYHYLISQDKAGKYCIPEGTKFDTLWQLVEYLKLKADGLIYCLKEACPNSSASNASG
# Key:
# [1] = target: B1; experiment: SPR
# [2] = target: B1; experiment: SPR; 37°C
# [3] = target: T1, Avi-CD3ζ ITAM3 (full intracellular tail of CD3ζ, amino acids 52-164, all tyrosines mutated to Ala except the … (UniProt P20963-1 52-164, biotin on the Avitag; tyrosines of ITAM3 phosphorylated in vitro by Lck); experiment: SPR; phosphorylated on ITAM3; dissociation phase fit
# T1 sequence (P20963 52-164, change not shown): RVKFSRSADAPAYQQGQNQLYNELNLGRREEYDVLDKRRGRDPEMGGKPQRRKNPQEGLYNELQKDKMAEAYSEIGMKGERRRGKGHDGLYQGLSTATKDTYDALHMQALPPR
# [4] = target: T1, Avi-CD3ζ ITAM3 (full intracellular tail …); experiment: SPR; phosphorylated on ITAM3; from kobs plot intercept
# [5] = target: B1; experiment: SPR
# [6] = target: B1; experiment: SPR; 37°C
# [7] = target: B1; experiment: single-particle tracking TIRF
Kd [1] [µM],Kd [2] [µM],koff [3] [s⁻¹],koff [4] [s⁻¹],koff [5] [s⁻¹],koff [6] [s⁻¹],koff [7] [s⁻¹],Binder
7.52,7.52,,,,,,Biotin-GKGHDLLYQGLSTATKDT[pY]DALHMQ [ITAM3 C (C-monophosphorylated CD3ζ ITAM3 peptide)]
,,0.25,0.21,,,,B1
20.7,20.7,,,5.5,5.5,4.8,Biotin-GKGHDLL[pY]QGLSTATKDTYDALHMQ [ITAM3 N (N-monophosphorylated CD3ζ ITAM3 peptide)]
